For experiment [1], the target named is BiP (Grp78, hsp70 isoform 5) (UniProt P06761). The experiment is described as follows: biotin-peptide streptavidin pull-down, LC-MS/MS. To be noted: reference: nonphospho-peptide.
The target of experiment [2] is Heat Shock Protein 70 Isoform 1 (hsp70-1). The experiment is described as follows: biotin-peptide streptavidin pull-down, LC-MS/MS. To be noted: reference: nonphospho-peptide; sites S261.
The target of experiment [3] is heat shock cognate 70 (hsc70; hsp70 isoform 8) (UniProt P63018). The experiment is described as follows: biotin-peptide streptavidin pull-down, LC-MS/MS. Particulars: reference: nonphospho-peptide.
For the next experiment, the target named is annexin II (UniProt Q07936). Description: biotin-peptide streptavidin pull-down, LC-MS/MS. To be noted: reference: nonphospho-peptide.
The target in experiment [4] is Heat Shock Protein 70 Isoform 2 (hsp70-2) (UniProt P14659). Description: biotin-peptide streptavidin pull-down, LC-MS/MS. Particulars: reference: nonphospho-peptide.
The target of experiment [5] is BiP (Grp78, hsp70 isoform 5) (UniProt P06761). Description: biotin-peptide streptavidin pull-down, immunoblot. Particulars: reference: nonphospho-peptide; sites S256.

As for “aquaporin-2 (AQP2) COOH-terminal peptide COOH-terminal tail (from UniProt P34080) pS261 peptide”, the “other: label-free MS quantification vs no-peptide control (Table 2)” value was “weaker; reference 2.13 ± 0.57” in experiment [1] (sites S261); “weaker; reference 3.41 ± 0.44” in experiment [2]; “weaker; reference 5.70 ± 0.27” in experiment [3] (sites S261); “weaker; reference 3.19 ± 0.32” with annexin II (sites S261); “weaker; reference 4.17 ± 0.38” in experiment [4] (sites S261).

Consider “aquaporin-2 (AQP2) COOH-terminal peptide COOH-terminal tail (from UniProt P34080) pS256 peptide”, for which the “other: label-free MS quantification vs no-peptide control (Table 2)” value was “stronger; reference 2.13 ± 0.57” in experiment [1] (sites S256), “weaker; reference 5.70 ± 0.27” in experiment [3] (sites S256), “weaker; reference 3.19 ± 0.32” in the experiment with annexin II (sites S256) and “weaker; reference 4.17 ± 0.38” in experiment [4] (sites S256). Further, the “binding against the reference” value in experiment [5] is on record as “stronger”.
